# Reference: paper PMC8750077
# Tests used:
# [1] = molecular target: HPV18-E6 (4C-4S) version of E6 fused with His-tag (human papillomavirus type 18 (HPV18)) (UniProt P06463)
# [2] = molecular target: HPV18-E6 (4C-4S) version of E6 fused with His-tag (human papillomavirus type 18 (HPV18)) (UniProt P06463); remark: listed apart in the source
# Chain of UniProt P06463 (P06463 whole entry, the tested form may be a part): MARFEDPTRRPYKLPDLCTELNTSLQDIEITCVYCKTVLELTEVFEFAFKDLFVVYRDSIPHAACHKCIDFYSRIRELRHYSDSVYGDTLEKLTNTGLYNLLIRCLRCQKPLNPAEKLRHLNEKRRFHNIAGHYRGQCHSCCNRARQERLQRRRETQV
substance,measurement,setting,value
untagged USP46 (from UniProt P62068 1-366) (enzyme),"deubiquitinase activity of recombinant USP46 (singly purified His-USP46, 70 nM) on the ubiquitin substrate after simple mixing with recombinant HPV-E6 (4 uM); USP46 alone 0.39 FU/min",[1],0.58 FU/min
same,deubiquitinase activity on Ub-AMC of the E6:USP46 complex purified on Ni-NTA and concentrated (USP46-UAF1 complex in the same assay: 0.83 FU/min),[2],0.78 FU/min
